# From publication PMC10655040
# Biological target: CXCR4 (human (endogenous in HeLa)) (UniProt P61073)
# Assay: flow cytometry on cells; competition on HeLa cells: 100 nM sfGFP(Y151pAzF)-SDF-1β coincubated with 1 μM commercial SDF-1β (R&D) or 1 μM CXCR4 blocking agent AMD3100; 10 000 cells per sample
# UniProt P61073, sequence (P61073 whole entry): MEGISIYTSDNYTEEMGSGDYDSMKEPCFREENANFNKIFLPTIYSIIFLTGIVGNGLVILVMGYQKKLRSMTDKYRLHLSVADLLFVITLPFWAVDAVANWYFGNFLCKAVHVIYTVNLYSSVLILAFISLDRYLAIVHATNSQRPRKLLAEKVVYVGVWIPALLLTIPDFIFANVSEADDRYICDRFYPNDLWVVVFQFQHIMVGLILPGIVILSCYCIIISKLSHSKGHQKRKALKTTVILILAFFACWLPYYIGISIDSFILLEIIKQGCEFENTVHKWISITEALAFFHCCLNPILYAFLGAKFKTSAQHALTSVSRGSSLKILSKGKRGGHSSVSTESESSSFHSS
substance,measurement,value
sfGFP(Y151pAzF)-SDF-1β (ligand),percent decrease of binding to HeLa cells with 1 μM AMD3100 (CXCR4 blocking agent),30%
